B1: Homeobox protein SIX1 (Homo sapiens), Q15475 (parent)
chain: MSMLPSFGFTQEQVACVCEVLQQGGNLERLGRFLWSLPACDHLHKNESVLKAKAVVAFHRGNFRELYKILESHQFSPHNHPKLQQLWLKAHYVEAEKLRGRPLGAVGKYRVRRKFPLPRTIWDGEETSYCFKEKSRGVLREWYAHNPYPSPREKRELAEATGLTTTQVSNWFKNRRQRDRAAEAKERENTENNNSSSNKQNQLSPLEGGKPLMSSSEEEFSPPQSPDQNSVLLLQGNMGHARSSNYSLPGLTASQPSHGLQTHQHQLQDSLLGPLTSSLVDLGS
partner: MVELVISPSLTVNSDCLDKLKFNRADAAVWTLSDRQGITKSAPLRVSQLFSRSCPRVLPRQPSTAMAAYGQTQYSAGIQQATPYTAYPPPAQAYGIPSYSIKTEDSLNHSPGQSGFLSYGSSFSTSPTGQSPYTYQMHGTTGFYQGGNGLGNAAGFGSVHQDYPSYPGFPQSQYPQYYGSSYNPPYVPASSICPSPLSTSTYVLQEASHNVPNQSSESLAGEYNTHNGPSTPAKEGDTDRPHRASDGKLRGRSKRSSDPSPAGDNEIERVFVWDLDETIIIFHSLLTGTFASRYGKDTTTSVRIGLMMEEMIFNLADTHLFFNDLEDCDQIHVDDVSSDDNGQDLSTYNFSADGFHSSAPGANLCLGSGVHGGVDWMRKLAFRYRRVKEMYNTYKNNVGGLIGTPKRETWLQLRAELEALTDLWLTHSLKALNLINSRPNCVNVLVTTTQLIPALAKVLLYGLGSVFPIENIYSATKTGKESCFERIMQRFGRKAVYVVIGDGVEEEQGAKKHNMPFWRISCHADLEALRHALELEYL

Variants of: B1
Conditions: with eya2_human EYA2, O00167
In the case of MSMLPSFGFTQEQVACECEVLQQGGNLERLGRFLWSLPACDHLHKNESVLKAKAVVAFHRGNFRELYKILESHQFSPHNHPKLQQLWLKAHYVEAEKLRGRPLGAVGKYRVRRKFPLPRTIWDGEETSYCFKEKSRGVLREWYAHNPYPSPREKRELAEATGLTTTQVSNWFKNRRQRDRAAEAKERENTENNNSSSNKQNQLSPLEGGKPLMSSSEEEFSPPQSPDQNSVLLLQGNMGHARSSNYSLPGLTASQPSHGLQTHQHQLQDSLLGPLTSSLVDLGS [V17E], the “effect of a mutation on the interaction” value is reported as “decreasing interaction strength”.

Reference: IntAct's records for PubMed 19497856
